This is an account of results in paper PMC5056641.

This data set concerns the target SRSF1 (ASF/SF2), unphosphorylated (human, UniProt Q07955 1-248). As to the kind of experiment: filter binding.

Sequence of SRSF1 (ASF/SF2), unphosphorylated (Q07955 whole entry): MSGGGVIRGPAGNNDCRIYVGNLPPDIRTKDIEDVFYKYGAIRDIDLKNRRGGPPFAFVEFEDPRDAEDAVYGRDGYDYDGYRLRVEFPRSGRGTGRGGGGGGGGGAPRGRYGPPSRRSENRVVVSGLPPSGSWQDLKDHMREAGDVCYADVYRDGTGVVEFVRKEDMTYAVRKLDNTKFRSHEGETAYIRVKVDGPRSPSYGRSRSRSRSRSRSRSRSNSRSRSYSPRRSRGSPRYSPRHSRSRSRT

As to AGGCGGAGGAAGC (ssRNA) [Ron ESE 13mer], the “apparent K (half saturation)” value came to 66 ± 2 nM.
